This note sets out measurements from patent US20200299380A1 (published 2020).

The labels stand for the following.
T1: human ULBP-1-Fc (R&D systems) (human, UniProt Q9BZM6 26-216, limits assumed)
T1 construct: Bought; not shown: Fc of the bought fusion protein
T1 sequence (looked up): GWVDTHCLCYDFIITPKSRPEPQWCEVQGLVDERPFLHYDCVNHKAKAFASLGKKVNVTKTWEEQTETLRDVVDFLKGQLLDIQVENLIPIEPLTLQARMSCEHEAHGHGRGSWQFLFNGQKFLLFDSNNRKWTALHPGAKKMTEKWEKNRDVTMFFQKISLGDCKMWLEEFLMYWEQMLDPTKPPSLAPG

T2: human ULBP-2-Fc (R&D systems) (human, UniProt Q9BZM5 26-217, limits assumed)
T2 construct: Bought; not shown: Fc of the bought fusion protein
T2 sequence (looked up): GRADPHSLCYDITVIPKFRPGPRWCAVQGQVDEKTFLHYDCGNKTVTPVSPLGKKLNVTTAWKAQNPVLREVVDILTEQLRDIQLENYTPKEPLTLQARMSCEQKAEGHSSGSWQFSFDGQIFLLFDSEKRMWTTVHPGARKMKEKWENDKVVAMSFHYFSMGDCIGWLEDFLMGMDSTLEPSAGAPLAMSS

T3: human ULBP-3-Fc (R&D systems) (human, UniProt Q9BZM4 30-217, limits assumed)
T3 construct: Bought; not shown: Fc of the bought fusion protein
T3 sequence (looked up): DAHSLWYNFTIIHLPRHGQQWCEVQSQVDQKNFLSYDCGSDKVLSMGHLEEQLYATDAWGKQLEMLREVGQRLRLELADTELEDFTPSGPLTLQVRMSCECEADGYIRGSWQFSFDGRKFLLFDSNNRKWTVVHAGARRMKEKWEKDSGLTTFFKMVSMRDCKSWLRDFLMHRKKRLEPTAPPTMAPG

T4: MICA*001 expressed at the cell surface (human, UniProt Q29983 24-297)
T4 construct: the protein on cells also has its transmembrane and cytoplasmic parts (Genbank AAB41060); also called C1R-MICA*001; C1R-MICA*01
T4 sequence: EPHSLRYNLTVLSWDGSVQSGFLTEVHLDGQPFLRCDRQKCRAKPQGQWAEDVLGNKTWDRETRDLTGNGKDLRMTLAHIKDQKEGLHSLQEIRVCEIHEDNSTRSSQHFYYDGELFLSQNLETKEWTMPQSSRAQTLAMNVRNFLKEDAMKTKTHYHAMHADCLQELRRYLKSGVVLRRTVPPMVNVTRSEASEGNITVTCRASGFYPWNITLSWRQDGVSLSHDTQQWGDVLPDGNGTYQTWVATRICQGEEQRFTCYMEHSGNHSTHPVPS

T5: MICA*004 expressed at the cell surface (human, UniProt Q29983 24-297)
T5 construct: also called C1R-MICA*004; C1R-MICA*04
T5 chain: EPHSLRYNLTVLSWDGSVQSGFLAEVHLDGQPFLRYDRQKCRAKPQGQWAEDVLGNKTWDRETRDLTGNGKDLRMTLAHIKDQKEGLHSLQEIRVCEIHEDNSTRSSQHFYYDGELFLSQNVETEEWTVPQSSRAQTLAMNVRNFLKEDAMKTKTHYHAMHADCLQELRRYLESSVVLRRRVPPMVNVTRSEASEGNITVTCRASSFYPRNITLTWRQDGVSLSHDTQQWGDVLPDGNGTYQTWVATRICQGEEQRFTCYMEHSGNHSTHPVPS

B1: CHG1-M-MIA-6E4 (antibody, V domains shown)
VH: EVQLVESGGALVKPGGSLKLSCAASGFTFSYYAMSWVRQTPEKRLEWVATISRGGNYIYYTDSVKGRFTISRDNAKNTLYLQMTSLRSEDTAMFYCASISDYDGAWLAYWGQGTTLTVSS
VL: DVLMTQTPLSLPVSLGDQASISCRSSQSIIHTNGNTYLEWYLQKPGQSPKLLIYKISNRFSGVPDRFSGSGSGTDFTLKISRVEAEDLGVYYCFQGSHVPWTFGGGTKLEIKR
notes: also called chimeric anti-MICA 6E4
B2: CHG1-M-MIA-16A8 (antibody, V domains shown)
VH: EVQLVESGGGLVKPGGSLKLSCAASGFTFSRYAMSWVRQTPEKRLEWVATIFSGGSYTYYPDSVKGRFTISRDNANNTLYLQMSSLKAEDTAMYFCARPNWERTFDYWGQGTTLTVSS
VL: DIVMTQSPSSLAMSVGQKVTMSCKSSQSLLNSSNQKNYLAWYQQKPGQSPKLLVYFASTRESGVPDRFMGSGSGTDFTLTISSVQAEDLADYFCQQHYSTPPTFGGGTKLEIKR
notes: also called CHG1-M-MIA2-16A8; chimeric anti-MICA 16A8
B3: CHG1-M-MIA-20C6 (antibody, V domains shown)
VH: QITLKESGPGILKPSQTLSLTCSFSGFSLSTSGMGVGWIRQPSGKGLEWLAHIWWDDDKYYNPSLKSQLTISKDTSRNQVFLRITSVDTADTATYYCARRTQGYFDYWGQGTTLTVSS
VL: DIVMTQSPATLSVTPGDRVSLSCRASQSISDYLHWYQQKSHESPRLLIKYASQSISGIPSRFSGSGSGSDFTLSINSVEPEDVGVYYCQNGHSFPWTFGGGTKLEIKR
notes: also called chimeric anti-MICA 20C6

One experiment concerns the target T1, human ULBP-1-Fc (R&D systems). Kind of experiment: SPR, antibody injected over immobilized ULBP-1-Fc. As for the experimental part: (§1) For cross-binding study, the human ULBP-1-Fc (R&D systems*), MICB-Fc (*), ULBP-2-Fc (*) and ULBP-3-Fc (*) recombinant proteins were covalently immobilized respectively on the flow cell one to four of a CM5 sensorchip. Anti-MICA antibodies (at a constant concentration of 10 μg/ml) were injected for 2 minutes at a flow rate of 10 μl/min onto the four flow cells in parallel. After each cycle, Sensorchip was regenerated by a five second injection of appropriate regeneration buffer.
A general note: In SPR one partner is held on a chip, and binding of the other changes the refractive index at the surface.
As for B1, the binding result was “no binding (tested: 10 µg/ml)”.

As for B2, the binding result is recorded as “no binding (tested: 10 µg/ml)”.

Take B3: the binding result is “no binding (tested: 10 µg/ml)”.

A further experiment deals with T2, human ULBP-2-Fc (R&D systems). Kind of experiment: SPR, antibody injected over immobilized ULBP-2-Fc. As for the experimental part: as §1
Regarding B1, the binding result is “no binding (tested: 10 µg/ml)”.

For the molecule B2, the binding result is recorded as “no binding (tested: 10 µg/ml)”.

B3: the binding result was “no binding (tested: 10 µg/ml)”.

For another experiment, the target named is T3, human ULBP-3-Fc (R&D systems). Kind of experiment: SPR, antibody injected over immobilized ULBP-3-Fc. As for the experimental part: as §1
In the case of B1, the binding result was “no binding (tested: 10 µg/ml)”.

For B2, the binding result is recorded as “no binding (tested: 10 µg/ml)”.

B3: the binding result is “no binding (tested: 10 µg/ml)”.

Another experiment concerns the target T4, MICA*001 expressed at the cell surface. Kind of experiment: flow cytometry on C1R transfectant cells, 4-parameter logistic fit. For orientation: Flow cytometry measures light scatter and fluorescence of single cells or particles in a stream.
The molecule B1 yielded an EC50 of 1.96 µg/mL.

B2 returned an EC50 of 1.07 µg/mL.

Molecule B3 registered an EC50 of 0.26 µg/mL.

For a further experiment, the target named is T5, MICA*004 expressed at the cell surface. The description is as above.
In turn, B1 gave an EC50 of 2.67 µg/mL.

B2 showed an EC50 of 0.44 µg/mL.

Consider B3, for which the concentration for a half-maximal effect (EC50) was 0.05 µg/mL.

In general, EC50 refers to the concentration giving half of the maximal effect. A lower EC50 goes with a more potent agent.
